Results as given in patent EP4785961A1 (Fortvita Biologics Inc., dated 2025).

Columns and labels:
[1] = molecular target: HER3 expressed on tumor cell lines (NUGC4, HCC1569, NCI-H508, SW620, HCC827 HER3OX) (UniProt P21860 20-1342, limits assumed); test: cell-based or functional assay
[2] = molecular target: T1, human HER3 (Sino Biological, 10201-H08H) (human, UniProt P21860 20-643); test: BLI (Fortebio Octet Red96e), AHC sensors, HER3-MB3 and antigen each at 100 nM
T1 construct: Bought antigen; also called ErbB3

[3] = molecular target: T2, monkey HER3 (Sino Biological, 90043-K08H) (cynomolgus monkey, UniProt G7PIG5 20-643); test: as above
T2 construct: Bought antigen; also called Cynomolgus monkeys
T2 sequence (G7PIG5 entry or part of it K08H K08H): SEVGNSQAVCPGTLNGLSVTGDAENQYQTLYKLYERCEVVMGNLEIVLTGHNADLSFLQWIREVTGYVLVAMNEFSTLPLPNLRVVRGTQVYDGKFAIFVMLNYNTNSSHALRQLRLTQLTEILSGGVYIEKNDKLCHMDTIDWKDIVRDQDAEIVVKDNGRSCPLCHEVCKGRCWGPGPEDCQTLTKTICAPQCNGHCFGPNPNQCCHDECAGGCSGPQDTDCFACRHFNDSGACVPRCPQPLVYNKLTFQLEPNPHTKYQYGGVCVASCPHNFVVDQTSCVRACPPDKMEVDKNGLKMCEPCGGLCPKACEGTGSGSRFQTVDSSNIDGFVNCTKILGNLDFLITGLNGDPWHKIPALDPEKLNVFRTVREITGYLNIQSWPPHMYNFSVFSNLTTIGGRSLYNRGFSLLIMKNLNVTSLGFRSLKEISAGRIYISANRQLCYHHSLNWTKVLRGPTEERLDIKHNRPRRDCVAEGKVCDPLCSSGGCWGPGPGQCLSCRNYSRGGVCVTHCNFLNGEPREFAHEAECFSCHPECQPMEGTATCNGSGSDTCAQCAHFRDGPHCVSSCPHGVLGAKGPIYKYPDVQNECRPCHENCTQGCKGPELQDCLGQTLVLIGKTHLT

[4] = molecular target: T3, mouse HER3 (Sino Biological, 51003-M08H) (mouse, UniProt Q61526 20-641); test: as above
T3 construct: Bought antigen; also called Mice
T3 sequence (Q61526 20-641 limits assumed, stated change not applied): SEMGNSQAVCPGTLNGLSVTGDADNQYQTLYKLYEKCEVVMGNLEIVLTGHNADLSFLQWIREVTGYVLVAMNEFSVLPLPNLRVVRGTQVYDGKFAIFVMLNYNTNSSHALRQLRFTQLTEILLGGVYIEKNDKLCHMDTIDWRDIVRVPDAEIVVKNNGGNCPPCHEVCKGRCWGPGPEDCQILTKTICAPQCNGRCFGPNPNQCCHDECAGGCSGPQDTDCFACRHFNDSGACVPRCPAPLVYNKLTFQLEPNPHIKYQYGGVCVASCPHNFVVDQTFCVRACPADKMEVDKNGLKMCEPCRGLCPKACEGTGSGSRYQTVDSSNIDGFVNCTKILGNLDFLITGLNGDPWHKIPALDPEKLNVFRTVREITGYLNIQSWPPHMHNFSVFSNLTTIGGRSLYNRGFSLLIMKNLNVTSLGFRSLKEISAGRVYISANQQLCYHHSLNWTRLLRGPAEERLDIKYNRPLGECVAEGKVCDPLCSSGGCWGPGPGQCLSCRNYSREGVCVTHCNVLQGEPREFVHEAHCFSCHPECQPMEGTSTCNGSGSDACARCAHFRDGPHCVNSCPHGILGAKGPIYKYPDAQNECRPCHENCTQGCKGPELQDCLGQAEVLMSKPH

[5] = molecular target: T4, rat HER3 (Sino Biological, 80111-R08H) (rat, UniProt Q62799 20-641); test: as above
T4 construct: Bought antigen
T4 sequence (Q62799 20-641 limits assumed, stated change not applied): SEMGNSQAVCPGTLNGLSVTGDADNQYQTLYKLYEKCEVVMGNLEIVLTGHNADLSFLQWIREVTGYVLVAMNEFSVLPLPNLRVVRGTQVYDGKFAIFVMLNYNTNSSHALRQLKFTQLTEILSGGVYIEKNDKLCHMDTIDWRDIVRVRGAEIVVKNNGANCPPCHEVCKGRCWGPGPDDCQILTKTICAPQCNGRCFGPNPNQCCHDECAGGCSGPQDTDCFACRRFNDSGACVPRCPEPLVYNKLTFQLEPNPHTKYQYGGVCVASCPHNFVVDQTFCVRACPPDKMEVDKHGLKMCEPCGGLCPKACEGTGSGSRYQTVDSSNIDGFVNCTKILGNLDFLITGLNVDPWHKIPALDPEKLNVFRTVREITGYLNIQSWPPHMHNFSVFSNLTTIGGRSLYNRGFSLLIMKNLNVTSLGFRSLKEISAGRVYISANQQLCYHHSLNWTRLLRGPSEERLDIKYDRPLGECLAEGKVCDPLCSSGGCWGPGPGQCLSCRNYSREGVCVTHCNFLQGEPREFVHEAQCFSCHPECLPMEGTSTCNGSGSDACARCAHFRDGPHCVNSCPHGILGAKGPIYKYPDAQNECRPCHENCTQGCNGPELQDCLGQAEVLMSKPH

B1: HER3-MB3 (patritumab-MB3) antibody-drug conjugate (antibody, human IgG1, kappa, V domains shown)
VH: QVQLQQWGAGLLKPSETLSLTCAVYGGSFSGYYWSWIRQPPGKGLEWIGEINHSGSTNYNPSLKSRVTISVETSKNQFSLKLSSVTAADTAVYYCARDKWTWYFDLWGRGTLVTVSS
VL: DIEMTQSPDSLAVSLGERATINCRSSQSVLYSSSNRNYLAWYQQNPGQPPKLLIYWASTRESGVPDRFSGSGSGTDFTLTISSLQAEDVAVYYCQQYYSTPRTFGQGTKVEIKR
modifications: drug-linker MB3 (payload MB1) conjugated to cysteines after TCEP reduction; conjugated positions not given; drug-linker MB3 (payload MB1) conjugated to cysteines after TCEP reduction; n mainly 8, average DAR 7.56; conjugated positions not given
notes: Antibody-drug conjugate; also called HER3-ADC
IC50 of in vitro killing, HCC1569 tumor cell line (3D culture, 7 days, Cell-Titer) [1]: 0.07 nM
IC50 of in vitro killing, NUGC4 tumor cell line (3D culture, 7 days, Cell-Titer) [1]: 0.55 nM
Kd [2]: 2.42 nM
koff [2]: 0.000463 s⁻¹
kon [2]: 191000 M⁻¹ s⁻¹
Kd [3]: 2.55 nM
koff [3]: 0.000562 s⁻¹
kon [3]: 221000 M⁻¹ s⁻¹
Kd [4]: 45.8 nM
koff [4]: 0.00989 s⁻¹
kon [4]: 216000 M⁻¹ s⁻¹
Kd [5]: 38.8 nM
koff [5]: 0.00615 s⁻¹
kon [5]: 158000 M⁻¹ s⁻¹
